Laboratory results taken from article PMC6996649, “Rational Engineered C-Acyltransferase Transforms Sterically Demanding Acyl Donors” (ACS Catalysis, 2019).

Legend:
Format in all cases: biochemical, Pseudomonas protegens
CC(=O)c1c(O)cc(O)cc1O = tested on: T1, CC(=O)c1c(O)cc(O)cc1O; assay: purified protein; details: disproportionation to DAPG, 100 mM potassium phosphate pH 7.5, 35 °C
T1 construct: PhlABC multi-subunit acyltransferase from codon-harmonized construct, recombinant in E. coli, purified enzyme; with 2,4-diacetylphloroglucinol biosynthesis acyltransferase subunit PhlA; 2,4-diacetylphloroglucinol biosynthesis acyltransferase subunit PhlB

CCCC(=O)c1c(O)cc(O)cc1O = tested on: T2, CCCC(=O)c1c(O)cc(O)cc1O; assay: purified protein; details: disproportionation to 3a (DBPG), 100 mM potassium phosphate pH 7.5, 35 °C
T2 construct: PhlABC multi-subunit acyltransferase from codon-harmonized construct, recombinant in E. coli, purified enzyme; with 2,4-diacetylphloroglucinol biosynthesis acyltransferase subunit PhlA; 2,4-diacetylphloroglucinol biosynthesis acyltransferase subunit PhlB

COCC(=O)Oc1ccccc1 = tested on: T3, COCC(=O)Oc1ccccc1; assay: HPLC assay of resorcinol acylation; details: 10 mM resorcinol as acceptor, 100 mM imidazole, potassium phosphate pH 7.5, 35 °C
T3 construct: PhlABC multi-subunit acyltransferase from codon-harmonized construct, recombinant in E. coli, purified enzyme; with 2,4-diacetylphloroglucinol biosynthesis acyltransferase subunit PhlA; 2,4-diacetylphloroglucinol biosynthesis acyltransferase subunit PhlB
From the text: (§1) HPLC assay of resorcinol acylation on PpATaseCH

CCCC(=O)Oc1ccccc1 = tested on: T4, CCCC(=O)Oc1ccccc1; assay: HPLC assay of resorcinol acylation; details: 10 mM resorcinol as acceptor, 100 mM imidazole, potassium phosphate pH 7.5, 35 °C
T4 construct: PhlABC multi-subunit acyltransferase from codon-harmonized construct, recombinant in E. coli, purified enzyme; with 2,4-diacetylphloroglucinol biosynthesis acyltransferase subunit PhlA; 2,4-diacetylphloroglucinol biosynthesis acyltransferase subunit PhlB
From the text: as §1

Work on “PpATaseCH (Pseudomonas protegens Pf-5; F148V)” yielded a Km (CC(=O)c1c(O)cc(O)cc1O) of 240 ± 90 µM, a Vmax (CC(=O)c1c(O)cc(O)cc1O) of 820 µM/min and a kcat (CC(=O)c1c(O)cc(O)cc1O) of 7.2 ± 1.9 s⁻¹. The kcat/Km (CC(=O)c1c(O)cc(O)cc1O) was 31000 ± 4000 M⁻¹ s⁻¹, the Km (CCCC(=O)c1c(O)cc(O)cc1O) was 540 ± 70 µM and the Vmax (CCCC(=O)c1c(O)cc(O)cc1O) was 620 µM/min. It also gave a kcat (CCCC(=O)c1c(O)cc(O)cc1O) of 5.3 ± 0.6 s⁻¹, a kcat/Km (CCCC(=O)c1c(O)cc(O)cc1O) of 9900 ± 800 M⁻¹ s⁻¹ and a Km (COCC(=O)Oc1ccccc1) of 5000 ± 1000 µM. It also gave a Vmax (COCC(=O)Oc1ccccc1) of 580 µM/min, a kcat (COCC(=O)Oc1ccccc1) of 0.188 ± 0.016 s⁻¹ and a kcat/Km (COCC(=O)Oc1ccccc1) of 38.7 ± 8.5 M⁻¹ s⁻¹. It also gave a Km (CCCC(=O)Oc1ccccc1) of 3200 ± 100 µM, a Vmax (CCCC(=O)Oc1ccccc1) of 40 µM/min and a kcat (CCCC(=O)Oc1ccccc1) of 0.012 ± 0.002 s⁻¹. For the same substance, the kcat/Km (CCCC(=O)Oc1ccccc1) was 3.7 ± 0.6 M⁻¹ s⁻¹.
